Assay [1] deals with T1, TTR-E42G peptide sequence WGPFA (41-45) (human).
T1 construct: Present in a mutant 15-mer spot of the pepscan membrane
T1 peptide: WGPFA
As to the kind of experiment: pepscan membrane, mutant peptide. The procedure:
(§1) Additional peptides including selected mutations were also plotted on the membrane. The membrane was blocked in Roti blocking buffer overnight at 4° C., incubated first with the anti-TTR antibody diluted in blocking buffer for 2 h at RT, then with an HRP-coupled anti human IgG antibody for 45 min at RT (dilution 1/20000 in TBS). The reaction was developed with luminol and imaged by luminescence.

The target in assay [2] is T2, bovine serum albumin (BSA) (bovine, UniProt P02769 25-607).
T2 construct: Control antigen in the ELISA
The assay can be described thus: direct ELISA, BSA coated at 10 ug/ml. The procedure: (§2) The antibody capacity to bind TTR and/or misfolded, misassembled and/or aggregated forms of TTR was evaluated by means of direct ELISA assays at varying antibody concentrations. This allows to determinate for each antibody its half maximal effective concentration (EC50) in this assay, which is a commonly used proxy for the antibody binding affinity, see FIG. 2A-2C. […] Antibodies against TTR were diluted in PBS at 11 different concentrations ranging from 4 to 400 nM, and incubated in the ELISA plates overnight at 4° C. After 3 washes with PBS-T, ELISA plates were incubated with a HRP-coupled, human IgG-specific secondary antibody for 1 h at RT (1/4000 dilution). After 3 washes with PBS-T, the ELISA reactions were developed with TMB for exactly 10 min at RT and quantified by measuring the optical density at 450 nm (OD450 nm).
(§3) Subsequently, the antibody's EC50s were determined by fitting the data with a non-linear regression using the least square method in order to estimate the antibody binding affinity under these conditions.

Assay [3] addresses T3, TTR 15-mer peptide FRKAADDTWEPFASG (human, also: covalently bound to a membrane).
T3 peptide: FRKAADDTWEPFASG
The assay can be described thus: pepscan membrane of 15-mer TTR peptides (peptides 9, 10 and 11). The procedure:
as §1

The target of assay [4] is T4, TTR 15-mer peptide ADDTWEPFASGKTSE (human, also: covalently bound to a membrane).
T4 peptide: ADDTWEPFASGKTSE
Described as above. The procedure:
as §1

Assay [5] has as its target T5, TTR 15-mer peptide WEPFASGKTSESGEL (human, also: covalently bound to a membrane).
T5 peptide: WEPFASGKTSESGEL
The assay is described as above. The procedure: as §1

Assay [6] has as its target mouse TTR protein contained in wild-type mouse liver extract (mouse, UniProt P07309 21-147). As to the kind of experiment: western blot, wild-type mouse liver extract 10 ug total protein. The procedure: FIGS. 4A-4D: Specificity for aggregated TTR on western blot. [0047] […] To prevent dissociation of the high molecular weight aggregates, the aggregated TTR sample was crosslinked with glutaraldehyde (1%, 5 min) prior to loading on the gel.
The binding specificity and selectivity of anti-TTR antibodies was evaluated by means of western blot, see FIG. 4A-4D. In brief, human wild-type TTR protein (300 ng) in native or misfolded-aggregated conformations, and wild-type mouse liver extract (10 μg total protein) were loaded on a SDS-PAGE gel and transferred onto a nitrocellulose membrane using a semi-dry transfer system. […] After 4 washes with PBS-T for 5 min at RT, the membrane was incubated with the appropriate secondary antibody (HRP-coupled; 1/10000 dilution in blocking buffer) for 1 h at RT. After 3 washes with PBS-T and a final one in PBS, the membrane was developed with luminol and the signal intensity quantified by measuring luminescence. Shortly before use, the misfolded-aggregated TTR sample was submitted to crosslinking with glutaraldehyde (1%, 5 min, 37° C.) to prevent the dissociation of TTR aggregates during the preparation process for SDS-PAGE. In contrast, the native TTR sample was not crosslinked before use, such that the TTR homotetramer (which is the native TTR conformation under physiological conditions) almost entirely dissociated into monomers and dimers.

In assay [7] the target is T2, bovine serum albumin (BSA). The assay can be described thus: dot blot on nitrocellulose, NI-301.mur35G11 10 nM, anti-mouse IgG2a-HRP detection. The procedure: FIGS. 6A-6C: Absence of binding to human plasma TTR on dot blot. [0051] […] [0052] Samples 1-6:150 ng of 1) aggregated wt-TTR, 2) native wt-TTR, 3) BSA, 4) native V30M-TTR, 5) native L55P-TTR and 6) native Y78F-TTR. [0053] Samples 7-18:2 μl of plasma collected from 7-10) controls (n=4), 11-14) asymptomatic mutation carriers (n=4) and 15-18) FAP patients (n=4).

Assay [8] addresses T6, TTR 15-mer peptide TSESGELHGLTTEEE (human, also: covalently bound to a membrane).
T6 peptide: TSESGELHGLTTEEE
The assay can be described thus: pepscan membrane of 15-mer TTR peptides (peptides 13 and 14). The procedure:
as §1

Assay [9] concerns the target T7, TTR 15-mer peptide GELHGLTTEEEFVEG (human, also: covalently bound to a membrane).
T7 peptide: GELHGLTTEEEFVEG
The description is as above. The procedure:
as §1

Assay [10] deals with T8, TTR 15-mer peptide GLTTEEEFVEGIYKV (human, also: covalently bound to a membrane).
T8 peptide: GLTTEEEFVEGIYKV
As to the kind of experiment: pepscan membrane of 15-mer TTR peptides (peptides 15 and 16). The procedure: as §1

Assay [11] concerns the target T9, TTR 15-mer peptide EEEFVEGIYKVEIDT (human, also: covalently bound to a membrane).
T9 peptide: EEEFVEGIYKVEIDT
Described as above. The procedure: as §1

In assay [12] the target is T10, misfolded-aggregated human wild-type TTR (human, UniProt P02766 21-147). As to the kind of experiment: direct ELISA, misfolded-aggregated human wild-type TTR coated at 10 ug/ml. The procedure:
as §2, §3

The target of assay [13] is misfolded-aggregated recombinant V30M-TTR (human, UniProt P02766 21-147). The assay can be described thus: direct ELISA, misfolded-aggregated recombinant V30M-TTR coated at 10 ug/ml. The procedure: as §2, §3
The target of another assay is native TTR-V30M (human, UniProt P02766 21-147). As to the kind of experiment: SPR (ProteOn XPR36), antibody captured by anti-human IgG-Fc, TTR in solution 3.2-316 nM, Langmuir 1:1 fit. The procedure:
(§4) SPR analysis was performed on a BioRad ProteOn XPR36 fitted with a GLM sensor chip. An anti-human antibody directed against the Fc gamma domain was covalently coupled to the detection surface and saturated with the antibody under investigation. […] The antibody-antigen association was analyzed during 180 s and the dissociation during 600 s. A Langmuir binding model (simple 1:1 association) was used to fit the data and derive the association (ka) and dissociation (kd) constants, and the affinity (KD).
(§5) An anti-human IgG-Fcγ antibody was covalently coated on the detection surfaces, and used to capture the human TTR-specific antibodies.

Another assay addresses native TTR-L55P (human, UniProt P02766 21-147). The description is as above. The procedure: as §4, §5
The target of assay [14] is T10, misfolded-aggregated human wild-type TTR. The assay is described as above. The procedure: as §4, §5

Ends that are not written are not given here.

T2 sequence (P02769 25-607 limits assumed): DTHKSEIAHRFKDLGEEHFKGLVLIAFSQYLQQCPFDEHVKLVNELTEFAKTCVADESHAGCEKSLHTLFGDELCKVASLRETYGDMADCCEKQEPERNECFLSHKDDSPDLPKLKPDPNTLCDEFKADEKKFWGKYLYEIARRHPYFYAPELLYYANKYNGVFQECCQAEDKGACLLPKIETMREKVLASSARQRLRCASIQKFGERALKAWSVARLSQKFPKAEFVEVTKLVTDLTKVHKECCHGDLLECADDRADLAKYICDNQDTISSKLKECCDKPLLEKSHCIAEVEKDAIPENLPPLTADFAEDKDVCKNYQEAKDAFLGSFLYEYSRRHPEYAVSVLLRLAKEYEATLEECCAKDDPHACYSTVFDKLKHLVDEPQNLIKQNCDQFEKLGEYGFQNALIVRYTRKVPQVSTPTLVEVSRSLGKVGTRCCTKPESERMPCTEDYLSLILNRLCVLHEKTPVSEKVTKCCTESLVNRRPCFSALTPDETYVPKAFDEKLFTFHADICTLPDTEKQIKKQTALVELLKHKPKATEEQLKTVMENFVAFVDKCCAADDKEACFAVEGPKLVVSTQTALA

B1: NI-301.37F1 (antibody, V domains shown)
VH: QVQLQESGPGLVKPSETLSLTCSVSGGSIISRSSYWGWIRQPPGKGLEWIGGIYHSGNTYDNPSLKSRLTMSVDTSKNQFSLNLRSVTAADTAVYYCARIVPGGDAFDIWGQGTMVTVSS
VL: DIQMTQSPSSLSASVGDRVTIACRASQSVGTYLNWYQQKRGKAPKLLIFAASSLQSGVPSRFSGSGSGTDFTLTISSLQPEDFATYYCQQSYSSPPTFGQGTKVEIK
As to B1, the binding result in [1] is “no binding (tested: 50 nM)”; in [2], “no binding (tested: up to 400 nM)”; in assay [3], “binds”; in assay [4] it was “binds”; in [5], “binds”; in assay [6], “no binding (tested: 50 nM)”.

B2: mouse chimeric antibody NI-301.mur35G11 (antibody, V domains shown)
VH: EVQLVESGGGLVQPGGSLRLSCVASGFTFSSYAMSWVRQVPGKGLEWVSSISGSGDTTKYTDSVKGRFTISRDNSKNTVFLQMSSLRAEDTALYYCVKDGSGRIDPFALWGQGTMVTVSS
VL: EIVMTQSPLSLPVTLGQPASISCRSSRSLVYSDGNIYLNWFQQRPGQSPRRLIYKVSNRDSGVPDRFSGSGSDTDFTLRISRVEAEDVGVYYCMQGTHWPRTFGQGTKVEIK
notes: detected with anti-mouse IgG2a secondary antibody; also called murine chimeric anti-TTR antibody
Regarding B2, the binding result in [7] was “no binding (tested: 10 nM)”.

B3: NI-301.35G11 (antibody, V domains shown)
VH: EVQLVESGGGLVQPGGSLRLSCVASGFTFSSYAMSWVRQVPGKGLEWVSSISGSGDTTKYTDSVKGRFTISRDNSKNTVFLQMSSLRAEDTALYYCVKDGSGRIDPFALWGQGTMVTVSS
VL: EIVMTQSPLSLPVTLGQPASISCRSSRSLVYSDGNIYLNWFQQRPGQSPRRLIYKVSNRDSGVPDRFSGSGSDTDFTLRISRVEAEDVGVYYCMQGTHWPRTFGQGTKVEIK
notes: also called NI.35G11
B3: the binding result in [2] is reported as “no binding (tested: up to 400 nM)”; in [8], “binds”; in [9], “binds”; in assay [6], “no binding (tested: 50 nM)”.

B4: NI-301.59F1 (antibody, V domains shown)
VH: EVQLVESGGGLVQPGGSLRLSCVASGFTFSNYWMSWVRQAPGKGLEWVANINQDSEKYYVDSVKGRFAISRDNSKNSLYLQMNSLRVEDTGVYYCARDRYCSGGRCSRGNNWFDPWGQGTLVTVSS
VL: not shown
In the case of B4, the binding result is given as “no binding (tested: up to 400 nM)” in assay [2], “binds” in assay [10], “binds” in assay [11] and “no binding (tested: 50 nM)” in [6]. The EC50 in assay [12] was determined as 3 nM; in [13], 15.5 nM. In addition, the Kd stood at 16 nM with native TTR-V30M, 3.1 nM with native TTR-L55P and 3.5 nM in assay [14]. Also, the koff with native TTR-V30M was determined as 0.00022 s⁻¹; in the assay with native TTR-L55P, 0.00015 s⁻¹; in assay [14], 0.00034 s⁻¹. The association rate constant (kon) stood at 13000 M⁻¹ s⁻¹ with native TTR-V30M, 51000 M⁻¹ s⁻¹ in the assay with native TTR-L55P and 97000 M⁻¹ s⁻¹ in assay [14].

The record behind these values is patent US20250154235A1 (NEURIMMUNE, published 2025).
